From paper PMC7483523, “Affinity of Skp to OmpC revealed by single-molecule detection” (Scientific Reports, 2020) come the findings set out here.

In general, stoichiometry N refers to the number of molecules, sites or subunits per partner or assembly.

Residue numbers refer to the chain shown, from its start. Names and notes keep the numbering of the source.

Data set [1] addresses T1, OmpC G8C-D335C labelled with AF555 and AF647 (UniProt P06996 22-367, G8C | D335C, fluorescent dyes AF555 and AF647 (maleimide) on the cysteines).
T1 construct: OmpC, outer membrane protein; plasmid pET28a-ompC as template; Unfolded OmpC, diluted from urea; Residue numbers fit the mature protein without its signal peptide (surmised); also called dual-labelled OmpC; intramolecular labelled OmpC G8C-D335C; source: E. coli BL21(DE3), purified (Ni-NTA) in 8 M urea; diluted from 8 M urea into the sample
T1 sequence (looked up): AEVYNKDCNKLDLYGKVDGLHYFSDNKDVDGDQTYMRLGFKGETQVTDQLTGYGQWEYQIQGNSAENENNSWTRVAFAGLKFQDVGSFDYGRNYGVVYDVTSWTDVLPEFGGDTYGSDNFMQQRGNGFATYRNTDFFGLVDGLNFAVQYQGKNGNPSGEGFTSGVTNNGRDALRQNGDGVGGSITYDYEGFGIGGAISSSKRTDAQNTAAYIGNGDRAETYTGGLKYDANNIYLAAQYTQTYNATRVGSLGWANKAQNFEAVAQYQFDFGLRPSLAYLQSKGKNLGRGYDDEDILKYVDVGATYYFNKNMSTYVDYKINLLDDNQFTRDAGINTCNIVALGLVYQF
As to the kind of experiment: pscFCS (portion-selectively-chosen FCS on smFRET subpopulations); 50 pM dual-labelled OmpC diluted from 8 M urea into wild-type Skp at subnanomolar to nanomolar concentrations, buffer C, 0.02% tween 20, 23 °C; diffusion times of bound and unbound OmpC compared in the same sample. The conditions noted are these: both partners purified.

For data set [2], the target named is T2, OmpC G8C-L139C, dual-labelled (UniProt P06996 22-367, G8C | L139C, dual-labelled with fluorescent dyes on the cysteines (dyes not named for this mutant)).
T2 construct: OmpC, outer membrane protein; plasmid pET28a-ompC as template; also called OmpC double mutant; source: E. coli BL21(DE3), purified (Ni-NTA) in 8 M urea
T2 sequence (looked up): T1 sequence (looked up) with L139C, C335D
Kind of data set: smFRET (intramolecular, on dual-labelled OmpC); 50 pM dual-labelled OmpC diluted from 8 M urea into micromolar wild-type Skp, buffer C, 0.02% tween 20, 23 °C; peak areas of Eapp 0.1 and 0.3 fitted against [Skp]0. The following applies: both partners purified.

The target in data set [3] is T3, OmpC G8C-I232C, dual-labelled (UniProt P06996 22-367, G8C | I232C, dual-labelled with fluorescent dyes on the cysteines (dyes not named for this mutant)).
T3 construct: OmpC, outer membrane protein; plasmid pET28a-ompC as template; also called OmpC double mutant; source: E. coli BL21(DE3), purified (Ni-NTA) in 8 M urea
T3 sequence (looked up): T1 sequence (looked up) with I232C, C335D
Described as above. The following applies: both partners purified.

Data set [4] addresses T4, OmpC·Skp3 complex (dual-labelled OmpC G8C-D335C with wild-type Skp) (UniProt P06996 22-367; P0AEU7 21-161, G8C | D335C, fluorescent dyes AF555 and AF647 (maleimide) on the cysteines).
T4 construct: OmpC, as the chain of m4; Skp, as the chain of m1; source: formed in the sample from purified urea-denatured OmpC G8C-D335C (50 pM) and purified wild-type Skp; copies: 1 + 3
T4 sequence 1: T1 sequence (looked up)
T4 sequence 2: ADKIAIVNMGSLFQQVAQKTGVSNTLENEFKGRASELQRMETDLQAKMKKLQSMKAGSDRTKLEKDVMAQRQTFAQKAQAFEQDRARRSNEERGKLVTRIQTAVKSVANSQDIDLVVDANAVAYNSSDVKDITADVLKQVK
The description is as above. The conditions noted are these: both partners purified.

Data set [5] deals with the molecule itself. Kind of data set: fluorescence correlation spectroscopy (FCS); trimer to monomers; 0.4 nM Skp D128C-Cy3B as tracer in wild-type Skp of various concentrations, denatured by 4 M urea and diluted 100-fold in buffer C (50 mM PB, 100 mM NaCl, pH 7.0), 0.02% tween 20, 23 °C; effective stoichiometric number from the diffusion time fitted against [Skp]0.
The target of data set [6] is T5, OmpC G8C-AF555 with an AviTag on the C-terminus, biotinylated (UniProt P06996 22-367, G8C, AF555 (maleimide) on the cysteine of G8C; biotin on the AviTag's lysine side chain).
T5 construct: OmpC, outer membrane protein; plasmid pET28a-ompC as template; Held on a streptavidin surface by the biotin of the AviTag; also called biotinylated OmpC; source: E. coli BL21(DE3), purified (Ni-NTA) in 8 M urea; biotinylated by BirA
T5 sequence (looked up): T1 sequence (looked up) with C335D
As to the kind of experiment: TIRF colocalization (single molecule); apparent; biotinylated OmpC G8C-AF555 (50 pM) immobilised on a streptavidin coverslip; Skp D128C-AF647 from 500 pM to 8 nM in buffer C, 0.02% tween 20, oxygen scavenging system, 23 °C; alternating laser excitation 532 and 640 nm. The following applies: both partners purified.

B1: wild-type Skp (natural protein)
chain: T4 sequence 2
notes: Skp, periplasmic chaperone of gram-negative bacteria; plasmid pET28a-skp; In equilibrium between monomer and homotrimer (Skp3); concentrations are counted in Skp monomer; The printed mass of the labelled His-tagged mutant (18.8 kD) and the residue number D128 fit the mature protein without its signal peptide (surmised); also called Skp3 (trimer); Skp monomer; source: E. coli BL21(DE3) pLysS, …
On to B1, for which the “stoichiometry N” value was 2.8 ± 0.4 Skp:OmpC in data set [1] and 3 in data set [5]. Moreover, the binding result in data set [2] and in data set [3] was “binds” throughout. The molecule further returned a Kd in data set [4] of 1200 ± 400 nM.

B2: Skp D128C-AF647 (natural protein)
chain: T4 sequence 2 with D128C
modifications: AF647 (maleimide) on the cysteine of D128C
notes: Skp; plasmid pET28a-skp as template; source: E. coli BL21(DE3) pLysS, purified (Ni-NTA, desalting), labelled in 4 M urea; not shown: His-tag, N-terminal, kept
As for B2, in data set [6], the Kd worked out at 0.55 nM and the “stoichiometry N” value came to 3.
